The assay concerns the target T1, Pleiotrophin, wild type (mature, residues 1 to 136) (human, UniProt P21246 33-168).
T1 sequence (looked up): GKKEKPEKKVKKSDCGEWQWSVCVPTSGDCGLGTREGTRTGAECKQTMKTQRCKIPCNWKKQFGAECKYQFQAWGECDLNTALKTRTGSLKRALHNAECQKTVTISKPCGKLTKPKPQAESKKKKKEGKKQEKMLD
The assay is described as follows: NMR titration.

For one molecule, Kd results are on record in article PMC8631008 (FEBS letters, 2021).

For orientation: Kd means the equilibrium constant for the complex coming apart. Lower therefore signals a tighter complex. In the case of GGGEDGDTDDDGDDDDDDRGSDGLSIHK [PTPRZ peptide (residues G1414 to K1441 of receptor type protein tyrosine phosphatase ζ)], the Kd is around 30 µM.
